According to patent publication US20200164038A1, “MODIFIED NUCLEOSIDE, NUCLEOTIDE, AND NUCLEIC ACID COMPOSITIONS” (ModernaTX, Inc., priority 2011, published 2020):
Read-outs that look alike come from different tables or passages of the source.

What was measured:
[1] = Human G-CSF modified RNA lipoplex I.M., S.C., I.V., serum human G-CSF ELISA 6 hours; type: in vivo, C57/BL6 mice; conditions: lipoplexed 30% RNAIMAX
Experimental: 6 hours after administration of a formulation, serum was collected from each mouse to measure the amount of human G-CSF protein in the mouse serum by human G-CSF ELISA and the results are shown in Table 54.

[2] = Time course in vivo study of LNP, serum G-CSF or EPO by ELISA; conditions: mice IV
Experimental: (§1) Formulations, listed in Table 31, were characterized by particle size, zeta potential, and encapsulation.
LNP formulations, shown in Table 31 (above), were administered to mice (n=5) intravenously (IV) at a single modified mRNA dose of 0.5, 0.05 or 0.005 mg/kg. The mice were bled at 8 hours, 24 hours, 72 hours and 6 days after they were administered with G-CSF or EPO modified mRNA formulations to determine protein expression using ELISA.

[3] = LNP in vivo study IV, IM, SC, serum G-CSF or EPO by ELISA; conditions: rats, 0.05 mg/kg
Experimental: as §1
LNP formulations, shown in Table 31 (above), were administered to rats (n=5) intravenously (IV), intramuscularly (IM) or subcutaneously (SC) at a single modified mRNA dose of 0.05 mg/kg. A control group of rats (n=4) was untreated. The rats were bled at 2 hours, 8 hours, 24 hours, 48 hours and 96 hours and after they were administered with G-CSF or EPO modified mRNA formulations to determine protein expression using ELISA. The rats administered EPO modified mRNA intravenously were also bled at 7 days.

[4] = Non-human primate in vivo study for G-CSF and EPO, serum protein by ELISA; set-up: species or system cynomolgus monkey
Experimental: as §1
(§2) LNP formulations, shown in Table 31 (above), were administered to non-human primates (NHP) (cynomolgus monkey) (n=2) as intravenous injection (IV). The NHP were administered a single modified mRNA IV dose of 0.5 mg/kg, 0.05 mg/kg or 0.005 mg/kg of G-CSF or EPO in a dose volume of 0.5 mL/kg. The NHPs were bled before dosing with the modified mRNA LNP formulations to determine protein expression in the serum and a baseline complete blood count. After administration with the G-CSF modified mRNA formulation the NHP were bled at 8, 24, 48 and 72 hours to determined protein expression. After administration with the EPO modified mRNA formulation the NHP were bled at 8, 24, 48, 72 hours and 7 days to determined protein expression.
(§3) Samples collected from the NHPs after they were administered with G-CSF or EPO modified mRNA formulations were analyzed by ELISA to determine protein expression. Neutrophil and reticulocyte count was also determined pre-dose, 24 hours, 3 days, 7 days, 14 days and 18 days after administration of the modified G-CSF or EPO formulation.

[5] = system: Neutrophil and reticulocyte count; assay: Non-human primate hematology: neutrophil and reticulocyte count, hemoglobin, hematocrit, red blood cells; type: in vivo, cynomolgus monkey; conditions: for Female NHP Neutrophils: Table 39
Experimental: as §2, §3

[6] = for Serum Concentration 8-12 hours after administration: G-CSF; for G-CSF Protein Expression, Conc: mice IV, serum 8 hrs
[7] = Female NHP, 0.5 mg/kg, 24 hours

B1: G-CSF: human G-CSF mRNA, SEQ ID NO: 6, polyA about 160 nt, Cap1, fully modified with 5-methylcytosine and pseudouridine (nucleic acid, listed as Homo sapiens)
chain: GGGAAAUAAGAGAGAAAAGAAGAGUAAGAAGAAAUAUAAGAGCCACCAUGGCCGGUCCCGCGACCCAAAGCCCCAUGAAACUUAUGGCCCUGCAGUUGCUGCUUUGGCACUCGGCCCUCUGGACAGUCCAAGAAGCGACUCCUCUCGGACCUGCCUCAUCGUUGCCGCAGUCAUUCCUUUUGAAGUGUCUGGAGCAGGUGCGAAAGAUUCAGGGCGAUGGAGCCGCACUCCAAGAGAAGCUCUGCGCGACAUACAAACUUUGCCAUCCCGAGGAGCUCGUACUGCUCGGGCACAGCUUGGGGAUUCCCUGGGCUCCUCUCUCGUCCUGUCCGUCGCAGGCUUUGCAGUUGGCAGGGUGCCUUUCCCAGCUCCACUCCGGUUUGUUCUUGUAUCAGGGACUGCUGCAAGCCCUUGAGGGAAUCUCGCCAGAAUUGGGCCCGACGCUGGACACGUUGCAGCUCGACGUGGCGGAUUUCGCAACAACCAUCUGGCAGCAGAUGGAGGAACUGGGGAUGGCACCCGCGCUGCAGCCCACGCAGGGGGCAAUGCCGGCCUUUGCGUCCGCGUUUCAGCGCAGGGCGGGUGGAGUCCUCGUAGCGAGCCACCUUCAAUCAUUUUUGGAAGUCUCGUACCGGGUGCUGAGACAUCUUGCGCAGCCGUGAAGCGCUGCCUUCUGCGGGGCUUGCCUUCUGGCCAUGCCCUUCUUCUCUCCCUUGCACCUGUACCUCUUGGUCUUUGAAUAAAGCCUGAGUAGGAAG
modifications: Cap1; polyA; 5-methylcytosine, pseudouridine
- Human G-CSF in Serum ([1]; 100 μg (Luc-unsp 150 μg), I. V.): 31.0 pg/mL
- Human G-CSF in Serum ([1]; 100 μg, S. C.): 3.9 pg/mL
- G-CSF Serum Concentration ([2]; LNP NPA-030-2, 0.005 mg/kg, 8 hours): 1,550.6 pg/ml
- G-CSF Serum Concentration ([2]; LNP NPA-030-2, 0.005 mg/kg, 24 hours): 5,068.9 pg/ml
- G-CSF Serum Concentration ([2]; LNP NPA-030-2, 0.05 mg/kg, 8 hours): 462,312.5 pg/ml
- G-CSF Serum Concentration ([2]; LNP NPA-030-2, 0.05 mg/kg, 24 hours): 80,903.8 pg/ml
- G-CSF Serum Concentration ([2]; LNP NPA-030-2, 0.5 mg/kg, 8 hours): >1,250,000 pg/ml
- G-CSF Serum Concentration ([2]; LNP NPA-030-2, 0.5 mg/kg, 24 hours): 495,812.5 pg/ml
- G-CSF Serum Concentration ([2]; LNP NPA-030-2, 0.5 mg/kg, 72 hours): 1,325.6 pg/ml
- time out to which protein expression was detectable ([2]; LNP, 0.005 mg/kg and 0.05 mg/kg): 72 h
- time out to which protein expression was detectable ([3]; intravenous): 7 days
- time out to which protein expression was detectable ([3]; subcutaneous and intramuscular): at least 8 hours
- Male NHP Serum G-CSF Concentration ([4]; 0.005 mg/kg IV LNP, 24 hours): <39 pg/mL
- Male NHP Serum G-CSF Concentration ([4]; 0.005 mg/kg IV LNP, 48 hours): <39 pg/mL
- Male NHP Serum G-CSF Concentration ([4]; 0.005 mg/kg IV LNP, 72 hours): <39 pg/mL
- Male NHP Serum G-CSF Concentration ([4]; 0.005 mg/kg IV LNP, Pre-bleed): <39 pg/mL
- Female NHP Serum G-CSF Concentration ([4]; 0.05 mg/kg IV LNP, 8 hours): 3,289 pg/ml
- Male NHP Serum G-CSF Concentration ([4]; 0.05 mg/kg IV LNP, 8 hours): 1,722 pg/ml
- Female NHP Serum G-CSF Concentration ([4]; 0.05 mg/kg IV LNP, 24 hours): 722 pg/mL
- Male NHP Serum G-CSF Concentration ([4]; 0.05 mg/kg IV LNP, 24 hours): 307 pg/mL
- Male NHP Serum G-CSF Concentration ([4]; 0.05 mg/kg IV LNP, 48 hours): <39 pg/mL
- Male NHP Serum G-CSF Concentration ([4]; 0.05 mg/kg IV LNP, 72 hours): <39 pg/mL
- Male NHP Serum G-CSF Concentration ([4]; 0.05 mg/kg IV LNP, Pre-bleed): <39 pg/mL
- Male NHP Serum G-CSF Concentration ([4]; 0.5 mg/kg IV LNP, Pre-bleed, limit of detection 39 pg/ml): <39 pg/mL
- time beyond which protein expression was not detected ([4]; NHP IV, G-CSF LNP): ≤ 72 h
- Hematocrit (HCT) ([5]; Female NHP, 0.005 mg/kg, 14/18 days): 0.42 L/L
- Hematocrit (HCT) ([5]; Female NHP, 0.005 mg/kg, 24 hours): 0.42 L/L
- Hematocrit (HCT) ([5]; Female NHP, 0.005 mg/kg, 3 days): 0.41 L/L
- Hematocrit (HCT) ([5]; Female NHP, 0.005 mg/kg, 7 days): 0.42 L/L
- Hematocrit (HCT) ([5]; Female NHP, 0.005 mg/kg, Pre-dose): 0.42 L/L
- Hematocrit (HCT) ([5]; Female NHP, 0.05 mg/kg, 14/18 days): 0.4 L/L
- Hematocrit (HCT) ([5]; Female NHP, 0.05 mg/kg, 24 hours): 0.4 L/L
- Hematocrit (HCT) ([5]; Female NHP, 0.05 mg/kg, 3 days): 0.39 L/L
- Hematocrit (HCT) ([5]; Female NHP, 0.05 mg/kg, 7 days): 0.4 L/L
- Hematocrit (HCT) ([5]; Female NHP, 0.05 mg/kg, Pre-dose): 0.44 L/L
- Hematocrit (HCT) ([5]; Female NHP, 0.5 mg/kg, 14/18 days): 0.37 L/L
- Hematocrit (HCT) [5, 7]: 0.38 L/L
- Red Blood Cells (RBC) [5, 7]: 4.95 10^12/L
- Hematocrit (HCT) ([5]; Female NHP, 0.5 mg/kg, 3 days): 0.38 L/L
- Hematocrit (HCT) ([5]; Female NHP, 0.5 mg/kg, 7 days): 0.38 L/L
- Hematocrit (HCT) ([5]; Female NHP, 0.5 mg/kg, Pre-dose): 0.43 L/L
- Hematocrit (HCT) ([5]; Male NHP, 0.005 mg/kg, 14/18 days): 0.41 L/L
- Hematocrit (HCT) ([5]; Male NHP, 0.005 mg/kg, 24 hours): 0.4 L/L
- Hematocrit (HCT) ([5]; Male NHP, 0.005 mg/kg, 3 days): 0.4 L/L
- Hematocrit (HCT) ([5]; Male NHP, 0.005 mg/kg, 7 days): 0.39 L/L
- Hematocrit (HCT) ([5]; Male NHP, 0.005 mg/kg, Pre-dose): 0.42 L/L
- Hematocrit (HCT) ([5]; Male NHP, 0.05 mg/kg, 14/18 days): 0.44 L/L
- Hematocrit (HCT) ([5]; Male NHP, 0.05 mg/kg, 24 hours): 0.39 L/L
- Hematocrit (HCT) ([5]; Male NHP, 0.05 mg/kg, 3 days): 0.41 L/L
- Hematocrit (HCT) ([5]; Male NHP, 0.05 mg/kg, 7 days): 0.42 L/L
- Hematocrit (HCT) ([5]; Male NHP, 0.05 mg/kg, Pre-dose): 0.44 L/L
- Hematocrit (HCT) ([5]; Male NHP, 0.5 mg/kg, 14/18 days): 0.34 L/L
- Hematocrit (HCT) ([5]; Male NHP, 0.5 mg/kg, 24 hours): 0.37 L/L
- Hematocrit (HCT) ([5]; Male NHP, 0.5 mg/kg, 3 days): 0.39 L/L
- Red Blood Cells (RBC) ([5]; Male NHP, 0.5 mg/kg, 3 days): 1.91 10^12/L
- Hematocrit (HCT) ([5]; Male NHP, 0.5 mg/kg, 7 days): 0.39 L/L
- Hematocrit (HCT) ([5]; Male NHP, 0.5 mg/kg, Pre-dose): 0.46 L/L
- neutrophils relative to pre-dose levels ([5]; NHP IV LNP, all G-CSF groups): increase in neutrophils
- Female NHP Neutrophils ([5]; 0.005 mg/kg IV LNP, 14/18 days): 0.057 10^12/L
- Female NHP Neutrophils ([5]; 0.005 mg/kg IV LNP, 24 hours): 0.07 10^12/L
- Female NHP Neutrophils ([5]; 0.005 mg/kg IV LNP, 3 days): 0 .054 10^12/L
- Female NHP Neutrophils ([5]; 0.005 mg/kg IV LNP, 7 days): 0.066 10^12/L
- Female NHP Neutrophils ([5]; 0.005 mg/kg IV LNP, Pre-dose): 0.06 10^12/L
- Female NHP Neutrophils ([5]; 0.05 mg/kg IV LNP, 14/18 days): 0.06 10^12/L
- Female NHP Neutrophils ([5]; 0.05 mg/kg IV LNP, 24 hours): 0.046 10^12/L
- Female NHP Neutrophils ([5]; 0.05 mg/kg IV LNP, 3 days): 0.061 10^12/L
- Female NHP Neutrophils ([5]; 0.05 mg/kg IV LNP, 7 days): 0.094 10^12/L
- Female NHP Neutrophils ([5]; 0.05 mg/kg IV LNP, Pre-dose): 0.049 10^12/L
- Female NHP Neutrophils ([5]; 0.5 mg/kg IV LNP, 14/18 days): 0.071 10^12/L
- Female NHP Neutrophils ([5]; 0.5 mg/kg IV LNP, 24 hours): 0.046 10^12/L
- Female NHP Neutrophils ([5]; 0.5 mg/kg IV LNP, 3 days): 0.017 10^12/L
- Female NHP Neutrophils ([5]; 0.5 mg/kg IV LNP, 7 days): 0.021 10^12/L
- Female NHP Neutrophils ([5]; 0.5 mg/kg IV LNP, Pre-dose): 0.055 10^12/L
- Serum Concentration 8-12 hours after administration ([6]; IM, 100 ug, saline): ~20 to 80 pg/mL
- Serum Concentration 8-12 hours after administration ([6]; IV (LNP), 1 ug): ~20,000 pg/ml
- Serum Concentration 8-12 hours after administration ([6]; IV (LNP), 10 ug): ~1,000,000 pg/ml
- Serum Concentration 8-12 hours after administration ([6]; IV (LNP), 100 ug): ~5,000,000 pg/ml
- Serum Concentration 8-12 hours after administration ([6]; IV (Lipoplex), 100 ug): ~30 pg/mL
- Serum Concentration 8-12 hours after administration ([6]; SC, 100 ug, saline): ~10 to 40 pg/mL
- G-CSF Protein Expression, Conc ([6]; LNP NPA-030-1, 10 ug): ~1200 ng/mL
- G-CSF Protein Expression, Conc ([6]; LNP NPA-030-1, 100 ug): ~4700 ng/mL
